Results published in patent publication US20220306705A1.
Numbering of substitutions follows the chain as printed. Blank lines part the entries; values can stand above or below the binder they belong to.

Assays:
Test in all cases: cell-based or functional assay
[1] = biological target: T1, Factor G β-subunit β2 (Limulus polyphemus)
T1 sequence: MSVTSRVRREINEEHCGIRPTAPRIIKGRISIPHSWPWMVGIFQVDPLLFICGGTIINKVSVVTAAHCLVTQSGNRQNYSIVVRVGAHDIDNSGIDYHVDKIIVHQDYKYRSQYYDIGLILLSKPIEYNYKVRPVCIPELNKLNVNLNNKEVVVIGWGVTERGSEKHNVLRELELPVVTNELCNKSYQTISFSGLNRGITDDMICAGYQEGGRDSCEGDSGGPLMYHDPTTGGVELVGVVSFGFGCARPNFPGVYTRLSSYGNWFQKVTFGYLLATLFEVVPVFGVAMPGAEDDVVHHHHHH

[2] = biological target: T2, Factor G β-subunit βi2 (Limulus polyphemus)
T2 sequence: T1 sequence with Y79S, P125R, G233R

[3] = biological target: T3, Factor G β-subunit β5 (Limulus polyphemus)
T3 sequence: T1 sequence with H167Y, G233R

[4] = biological target: T4, Factor G β-subunit βC2 (Limulus polyphemus)
T4 sequence: T1 sequence with G233R

[5] = biological target: T5, Factor G β-subunit βi3 (Limulus polyphemus)
T5 sequence: T1 sequence with Y79S, H167Y, G233R

[6] = biological target: T6, Factor G β-subunit βC1 (Limulus polyphemus)
T6 sequence: T1 sequence with Y79S, P125R, H167Y, G233R

[7] = biological target: T7, Tachypleus Factor G β-subunit (Tachypleus (paragraph 383 prints 'Tachypleus polyphemus'; paragraph 8 prints Tachypleus tridentatus)) (UniProt Q27083)
T7 sequence (looked up): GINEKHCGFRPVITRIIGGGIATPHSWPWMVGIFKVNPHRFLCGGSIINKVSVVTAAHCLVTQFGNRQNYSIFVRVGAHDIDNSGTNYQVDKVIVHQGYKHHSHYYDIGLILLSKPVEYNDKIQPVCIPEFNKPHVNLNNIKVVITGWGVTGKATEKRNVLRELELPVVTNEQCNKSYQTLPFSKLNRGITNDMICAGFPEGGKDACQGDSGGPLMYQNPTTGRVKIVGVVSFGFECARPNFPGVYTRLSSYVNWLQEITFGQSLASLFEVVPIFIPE

glucan-dependent protease activity of the coexpressed product: blank difference in absorbance (405 nm / 492 nm) with vs without LNT; grade A >0.1, B <=0.1 and >0.01, C <=0.01 and >0, D =0 (absorbance difference) [1]: < 0.01
glucan-dependent protease activity of the coexpressed product: blank difference in absorbance (405 nm / 492 nm) with vs without LNT; grade A >0.1, B <=0.1 and >0.01, C <=0.01 and >0, D =0 (absorbance difference) [2]: 0.1
glucan-dependent protease activity of the coexpressed product: blank difference in absorbance (405 nm / 492 nm) with vs without LNT; grade A >0.1, B <=0.1 and >0.01, C <=0.01 and >0, D =0 (absorbance difference) [3]: < 0.1
glucan-dependent protease activity of the coexpressed product: blank difference in absorbance (405 nm / 492 nm) with vs without LNT; grade A >0.1, B <=0.1 and >0.01, C <=0.01 and >0, D =0 (absorbance difference) [4]: < 0.01
glucan-dependent protease activity of the coexpressed product: blank difference in absorbance (405 nm / 492 nm) with vs without LNT; grade A >0.1, B <=0.1 and >0.01, C <=0.01 and >0, D =0 (absorbance difference) [5]: 0.1
glucan-dependent protease activity of the coexpressed product: blank difference in absorbance (405 nm / 492 nm) with vs without LNT; grade A >0.1, B <=0.1 and >0.01, C <=0.01 and >0, D =0 (absorbance difference) [6]: < 0.1
B1: Factor G α-subunit A (protein)
chain: EPKWKLVWSDEFTNGISSDWEFETGNGPNGWGNNELQYYRRENTRVEGGKLIITAKEEDYEGFRYTSAKLKTQFNKPWKDGKIEARMSIPSFRGVWVAFWMLGDITDTDSWPSSGEIDFEEHINTNNEVRGTIHWSTSDDADTLHGRGTNTDYHIYSVEWNSSVIRWFVDGNQYFEVNIQRGATGTNAFHNNVFVILNMAIGGNWPGFNVADEAFPANMYVDYVRVYQDANTPSPVDVTHLSGYYFLQNRHSELYLDVSGSSNEDGAFLQQWPYSGNANQQFDFVHLGNKVYKIINKNSGKSLDVYELGTDNGVRIQQWSYGGGYNQQFIVQDVGDGYYKIFARSTGKLVEVADLNKDPGGKIQQWSDDGQLSGQWKLIRNKANSKLIQAESYFASSKVQLEDTSDVGGGKNVKCDNEGAWMAYKDINFPSSGTYQVEYRVASERAGGMLSLDLNAGSIVLGMLNVPSTGGLQKWTTISHTVNVSSGTYNLGISVQRPGWNINWINITKVSSQLKSIPSTNSRVIQAESYFDSSKVQLEDTSDVGGGKNVKCDTKGAWMAYKDINFPSSGSYQIEYRVASERAGGKLSLDLNAGSIVLGMLDVPSTGGWQKWTTISHTVKVDSGTYNLGIYVQQPGWNINWIKITKV

glucan-dependent protease activity of the coexpressed product: blank difference in absorbance (405 nm / 492 nm) with vs without LNT; grade A >0.1, B <=0.1 and >0.01, C <=0.01 and >0, D =0 (absorbance difference) [1]: 0
glucan-dependent protease activity of the coexpressed product: blank difference in absorbance (405 nm / 492 nm) with vs without LNT; grade A >0.1, B <=0.1 and >0.01, C <=0.01 and >0, D =0 (absorbance difference) [2]: 0
glucan-dependent protease activity of the coexpressed product: blank difference in absorbance (405 nm / 492 nm) with vs without LNT; grade A >0.1, B <=0.1 and >0.01, C <=0.01 and >0, D =0 (absorbance difference) [3]: 0
glucan-dependent protease activity of the coexpressed product: blank difference in absorbance (405 nm / 492 nm) with vs without LNT; grade A >0.1, B <=0.1 and >0.01, C <=0.01 and >0, D =0 (absorbance difference) [4]: 0
glucan-dependent protease activity of the coexpressed product: blank difference in absorbance (405 nm / 492 nm) with vs without LNT; grade A >0.1, B <=0.1 and >0.01, C <=0.01 and >0, D =0 (absorbance difference) [5]: 0
glucan-dependent protease activity of the coexpressed product: blank difference in absorbance (405 nm / 492 nm) with vs without LNT; grade A >0.1, B <=0.1 and >0.01, C <=0.01 and >0, D =0 (absorbance difference) [6]: 0
B2: Factor G α-subunit (AB547712) derived from Limulus polyphemus (protein)
chain: SQEPKWKLVWSDEFTNGISSDWEFETGNGPNGWGNNELQYYRRENTRVEGGKLIITAKEEDYEGFRYTSAKLKTQFNKPWKDGKIEARMSIPSFRGVWVAFWMLGDITDTDSWPSSGEIDFEEHINTNNEVRGTIHWSTSDDADTLHGRGTNTDYHIYSVEWNSSVIRWFVDGNQYFDVNIQRGATGTNAFHNNVFVILNMAIGGNWPGFNVADEAFPANMYVDYVRVYQDANTPSPVDVTHLSGYYFLQNRHSELYLDVSGSSNEDGAFLQQWPYSGNANQQFDFVHLGNKVYKIINKNSGKSLDVYELGTDNGVRIQQWSYGGGYNQQFIVQDVGDGYYKIFARSTGKLVEVADLNKDPGGKIQQWSDDGQLSGQWKLIRNKANSKLIQAESYFASSKVQLEDTSDVGGGKNVKCDNEGAWMAYKDINFPSSGTYQVEYRVASERAGGMLSLDLNAGSIVLGMLNVPSTGGLQKWTTISHTVNVSSGTYNLGISVQRPGWNINWINITKVSSQLKSIPSTNSRVIQAESYFDSSKVQLEDTSDVGGGKNVKCDTKGAWMAYKDINFPSSGSYQIEYRVASERAGGKLSLDLNAGSIVLGMLDVPSTGGWQKWTTISHTVKVDSGTYNLGIYVQQPGWNINWIKITKV

Continued, binder first:

B3: Factor G α-subunit B (protein)
chain: TNWKLVWSDEFTNGISSDWEFETGNGPNGWGNNELQYYRRENARVEGGKLIITAKKEDYEGFRYTSAKLKTQFNKPWKDGKIEARMSIPSFRGVWVAFWMLGDITDTDSWPSSGEIDFKEHINTNNEVRGTIHWSTSDGAHTHHGRGTNTDYHIYSVEWNSSVIRWFVDGNQYFEVNIQRGATGTNAFHNKVFVILNMAIGGNWPGFNVADEAFPANMYVDYVRVYQDANTPSPVDVDVTDLSGYYFLQNRHSELYLDVSFSSNKDGAFLQQWPYNGNANQQFDFVHLGNNIYKITNKNSGKSLDVYNVGTENGVRIQQMPYRGSYNQQFIVQDVGDGYYKIFARNSRKLVEVADFNKDPGGKIQQWSDDGQISGQWKLIRNKVNSKVIQAESYFASLGVQLEDTSDVGGGKNVKCDTEGAWMAYKDINFPSSGSYQVEYRVASERAGGKLSLDLNAGSIVLGMLNVPSTGGWQKWTTISHTVKVDSGTYNLGIYVQRPRWNINWIKITEAPGQSKPIQRSDTDSKVIQAESYFASSKVQLEDTSDVGGGKNVKCDNEGAWMAYKDINFPSSGSYQIEYRVASERAGGKLSLDLNAGSIVLGMLDVPSTGGWQKWTTISHTVNVSSGTYNLGIYVQRAAWNINWIKITKV
glucan-dependent protease activity of the coexpressed product: blank difference in absorbance (405 nm / 492 nm) with vs without LNT; grade A >0.1, B <=0.1 and >0.01, C <=0.01 and >0, D =0 (absorbance difference) [1]: 0.1
glucan-dependent protease activity of the coexpressed product: blank difference in absorbance (405 nm / 492 nm) with vs without LNT; grade A >0.1, B <=0.1 and >0.01, C <=0.01 and >0, D =0 (absorbance difference) [2]: 0
glucan-dependent protease activity of the coexpressed product: blank difference in absorbance (405 nm / 492 nm) with vs without LNT; grade A >0.1, B <=0.1 and >0.01, C <=0.01 and >0, D =0 (absorbance difference) [3]: 0
glucan-dependent protease activity of the coexpressed product: blank difference in absorbance (405 nm / 492 nm) with vs without LNT; grade A >0.1, B <=0.1 and >0.01, C <=0.01 and >0, D =0 (absorbance difference) [4]: < 0.1
glucan-dependent protease activity of the coexpressed product: blank difference in absorbance (405 nm / 492 nm) with vs without LNT; grade A >0.1, B <=0.1 and >0.01, C <=0.01 and >0, D =0 (absorbance difference) [5]: < 0.01
glucan-dependent protease activity of the coexpressed product: blank difference in absorbance (405 nm / 492 nm) with vs without LNT; grade A >0.1, B <=0.1 and >0.01, C <=0.01 and >0, D =0 (absorbance difference) [6]: 0

B4: Tachypleus Factor G α-subunit (protein)
chain: SHEPKWQLVWSDEFTNGISSDWEFEMGNGLNGWGNNELQYYRRENAQVEGGKLVITAKREDYDGFKYTSARLKTQFDKSWKYGKIEAKMAIPSFRGVWVMFWMSGDNTNYVRWPSSGEIDFIEHRNTNNEKVRGTIHWSTPDGAHAHHNRESNTNGIDYHIYSVEWNSSIVKWFVNGNQYFEVKIQGGVNGKSAFRNKVFVILNMAIGGNWPGFDVADEAFPAKMYIDYVRVYQDASTSSPVGDTSLDGYYFVQNRHSELYLDVTDASNEDGAFLQQWSYSGNENQQFDFEHLENNVYKITNKKSGKSLDVYNFGTENGVRIQQWSYGGARNQQFTVQSVGDGYYKIIPRGSGKLVEVADFSKDAGGKIQQWSDNNQLSGQWKLIKSKSYSKLIQAESYFDSSKVQLEDTSDVGGGKNVKCDNEGAWMAYKDIDFPSSGNYRIEYRVASERAGGKLSLDLNAGSIVLGMLDVPSTGGWQKWTTISHTVNVDSGTYNLGIYVQRASWNINWIKITKIPEQSNLNQGRRNSKLIQAESYFSYSEVQLEDTLDVGGGKNVKCDKEGAWMAYKDIDFPSSGSYRVEYRVASERAGGKLSLDLNAGSIVLGMLDIPSTGGLQKWTTISHIVNVDLGTYNLGIYVQKASWNINWIRITKV
glucan-dependent protease activity of the coexpressed product: blank difference in absorbance (405 nm / 492 nm) with vs without LNT; grade D = blank difference equal to 0 (legend given for Table 13) (absorbance difference) [7]: 0
